Test results published in publication PMC9927256, “Structural and Functional Characterization of Rv0792c from Mycobacterium tuberculosis: Identifying Small Molecule Inhibitor against HutC Protein” (Microbiology Spectrum, 2022).

What was measured:
Rv0792c = target: T1, Rv0792c (Mycobacterium tuberculosis, UniProt O86331); assay: […]; EMSA with Cy5-labeled native promoter; type: binding
T1 construct: His6-Rv0792c

[1] = target: T2, Rv0792c (HutC, GntR family) (Mycobacterium tuberculosis) (UniProt O86331); assay: competitive ALISA
T2 sequence (O86331 whole entry, looked up): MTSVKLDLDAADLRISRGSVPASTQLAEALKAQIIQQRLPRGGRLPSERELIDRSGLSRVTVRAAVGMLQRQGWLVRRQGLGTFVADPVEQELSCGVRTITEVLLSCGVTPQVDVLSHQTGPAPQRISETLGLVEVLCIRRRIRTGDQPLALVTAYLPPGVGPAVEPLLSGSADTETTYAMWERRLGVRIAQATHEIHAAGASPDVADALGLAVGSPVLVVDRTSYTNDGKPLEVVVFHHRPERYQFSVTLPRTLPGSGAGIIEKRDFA

[2] = target: T2, Rv0792c (HutC, GntR family) (Mycobacterium tuberculosis); assay: ALISA (plate-immobilized protein)
[3] = target: the molecule itself; assay: AUC; sedimentation velocity; Rv0792c at 0.38, 0.76 and 1.52 mg/mL in 25 mM HEPES pH 7.2, 400 mM NaCl, 10% glycerol; 40,000 rpm; absorbance at 280 nm; c(s) analysis with SedFit; S20,w

`COc1cc(/C=C(\C#N)C(=O)c2ccc(O)c(O)c2)cc(I)c1O` [I-OMe-Tyrphostin, (2E)-2-(3,4-dihydroxybenzoyl)-3-(4-hydroxy-3-iodo-5-methoxyphenyl) acrylonitrile] was tested, and the IC50 (Rv0792c) was about 109 nM.

“TCTAGTCATTCGTCATAATCCCATCTGTTTCTTCCTCCTTCCGT [Rv0792c_2 aptamer (also Rv0729c_2)]” gave an IC50 [1] of 109 nM and a Kd [2] of 51 nM.

B1: Rv0792c from Mycobacterium tuberculosis, wild type, with an amino-terminal histidine tag (natural protein)
chain: MTSVKLDLDAADLRISRGSVPASTQLAEALKAQIIQQRLPRGGRLPSERELIDRSGLSRVTVRAAVGMLQRQGWLVRRQGLGTFVADPVEQELSCGVRTITEVLLSCGVTPQVDVLSHQTGPAPQRISETLGLVEVLCIRRRIRTGDQPLALVTAYLPPGVGPAVEPLLSGSADTETTYAMWERRLGVRIAQATHEIHAAGASPDVADALGLAVGSPVLVVDRTSYTNDGKPLEVVVFHHRPERYQFSVTLPRTLPGSGAGIIEKRDFA
notes: also called His6-Rv0792c; (His)6-Rv0792c; not shown: His6, N-terminal, kept
With B1 the “stoichiometry N” value [3] was 2.
